Measurements as given in the Human Domainome abundance scans (Beltran et al. 2025).
± gives the uncertainty stated by the source.

Experiment: abundance fitness (aPCA) (normalised: wild type 0, dead -1); higher = more abundant; growth selection in yeast, the domain comes from the species named
Settings: Homo sapiens

Substance | abundance fitness
Telomeric repeat-binding factor 2 P520D, Q15554 | -0.564 ± 0.055
Telomeric repeat-binding factor 2 Q490K, Q15554 | -0.247 ± 0.21
Telomeric repeat-binding factor 2 A513T, Q15554 | 0.25 ± 0.098
Telomeric repeat-binding factor 2 K517Q, Q15554 | -0.035 ± 0.044
Telomeric repeat-binding factor 2 A514R, Q15554 | -0.428 ± 0.11
Telomeric repeat-binding factor 2 Y507F, Q15554 | -0.559 ± 0.17
Telomeric repeat-binding factor 2 V522R, Q15554 | 0.031 ± 0.058
Telomeric repeat-binding factor 2 I529L, Q15554 | -0.213 ± 0.079
Telomeric repeat-binding factor 2 N523D, Q15554 | -0.199 ± 0.061
Telomeric repeat-binding factor 2 W499Q, Q15554 | -0.018 ± 0.095
Telomeric repeat-binding factor 2 S516L, Q15554 | 0.222 ± 0.087
Telomeric repeat-binding factor 2 E509V, Q15554 | -0.353 ± 0.076
Telomeric repeat-binding factor 2 N518H, Q15554 | -0.227 ± 0.068
Telomeric repeat-binding factor 2 K491R, Q15554 | -0.21 ± 0.065
Telomeric repeat-binding factor 2 S497D, Q15554 | 0.392 ± 0.099
